Laboratory results as given in patent publication US20160046707A1 (EISAI R AND D MANAGEMENT, published 2016).

Tests used:
Experiment in all cases: ELISA, plate-bound chemokine (1 ug/ml), antibody 10 ug/ml, OD450
recombinant human CCL28 = target: T1, recombinant human CCL28 (human, UniProt Q9NRJ3 23-127, limits assumed)
T1 sequence (looked up): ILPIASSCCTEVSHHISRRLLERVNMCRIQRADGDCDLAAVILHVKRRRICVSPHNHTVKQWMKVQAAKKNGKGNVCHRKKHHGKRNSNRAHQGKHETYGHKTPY
Experimental: (§1) The wells of a 96-well plate were coated with 1 μg/ml of the recombinant human chemokines in PBS (−). After overnight incubation at 4° C., the wells were blocked with 1× Block-Ace (Dainippon Sumitomo Pharma, UK-B80) for 1 hour at room temperature. After washing twice with 0.02% Tween 20/PBS (−), we added 50 μl of 10 μg/ml purified 36F7C10, chimeric 36F710, HC2/LK3, or HC2/LC3 in 0.02% Tween 20/PBS (−) to each well. The wells were incubated for 1 hour at room temperature and washed three times as described in Example 3. […] After washing five times, a TMBZ (3,3′,5,5′-tetramethylbenzidine) solution (1%, in N,N-Dimethylformamide) was added to the wells and incubated for 15-30 minutes. The reaction was stopped by adding an equal volume of a 2 M H₂SO₄ stopping solution, and the optical density was read at 450 nm by ARVO (PerkinElmer).

recombinant human CXCL12 = target: T2, recombinant human CXCL12 (human, UniProt P48061-2 22-89)
T2 construct: also called SDF-1/PBSF
Experimental: as §1

recombinant human CXCL2 = target: T3, recombinant human CXCL2 (human, UniProt P19875 35-107)
T3 construct: also called GROβ
T3 sequence (looked up): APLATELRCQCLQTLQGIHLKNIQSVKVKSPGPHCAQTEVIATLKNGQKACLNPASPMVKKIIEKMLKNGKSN
Experimental: as §1

recombinant human CCL25 = target: T4, recombinant human CCL25 (human, UniProt O15444 24-150)
T4 construct: also called TECK
T4 sequence (looked up): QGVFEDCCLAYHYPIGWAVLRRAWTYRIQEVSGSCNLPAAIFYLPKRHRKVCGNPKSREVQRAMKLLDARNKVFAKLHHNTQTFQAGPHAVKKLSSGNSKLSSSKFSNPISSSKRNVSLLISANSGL
Experimental: as §1

recombinant human CXCL13 = target: T5, recombinant human CXCL13 (human, UniProt O43927 23-109)
T5 construct: also called BCA-1/BLC
T5 sequence (looked up): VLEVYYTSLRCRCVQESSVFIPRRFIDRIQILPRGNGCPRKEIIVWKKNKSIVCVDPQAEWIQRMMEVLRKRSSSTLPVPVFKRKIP
Experimental: as §1

[1] = target: T6, recombinant human CX3CL1 (Chemokine Domain) (human, UniProt P78423 25-100)
T6 construct: domain: Chemokine Domain; also called FKN
T6 sequence (looked up): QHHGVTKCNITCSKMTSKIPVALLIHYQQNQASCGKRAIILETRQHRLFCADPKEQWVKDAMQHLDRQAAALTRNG
Experimental: as §1

recombinant human CXCL9 = target: T7, recombinant human CXCL9 (human, UniProt Q07325 23-125)
T7 construct: also called MIG
T7 sequence (looked up): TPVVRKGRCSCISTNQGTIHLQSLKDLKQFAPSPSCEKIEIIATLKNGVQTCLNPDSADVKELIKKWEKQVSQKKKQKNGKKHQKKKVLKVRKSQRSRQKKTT
Experimental: as §1

recombinant human CCL11 = target: T8, recombinant human CCL11 (human, UniProt P51671 24-97)
T8 construct: also called Eotaxin
Experimental: as §1

recombinant human CCL19 = target: T9, recombinant human CCL19 (human, UniProt Q99731 22-98)
T9 construct: also called MIP-3b
T9 sequence (looked up): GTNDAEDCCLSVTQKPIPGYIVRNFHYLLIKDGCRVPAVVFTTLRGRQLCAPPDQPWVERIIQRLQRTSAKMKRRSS
Experimental: as §1

recombinant human CCL27 = target: T10, recombinant human CCL27 (human, UniProt Q9Y4X3 25-112)
T10 construct: also called CTACK
T10 sequence (looked up): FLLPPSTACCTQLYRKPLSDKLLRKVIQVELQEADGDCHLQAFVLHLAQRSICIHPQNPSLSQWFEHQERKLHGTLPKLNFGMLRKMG
Experimental: as §1

recombinant human CCL13 = target: T11, recombinant human CCL13 (human, UniProt Q99616 24-98)
T11 construct: also called MCP-4
Experimental: as §1

recombinant human CXCL8 = target: T12, recombinant human CXCL8 (human, UniProt P10145 28-99)
T12 construct: also called IL-8
T12 sequence (looked up): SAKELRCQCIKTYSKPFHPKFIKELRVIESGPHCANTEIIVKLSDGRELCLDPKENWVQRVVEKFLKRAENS
Experimental: as §1

recombinant human CCL4 = target: T13, recombinant human CCL4 (human, UniProt P13236 24-92)
T13 construct: also called MIP-1β
T13 sequence (looked up): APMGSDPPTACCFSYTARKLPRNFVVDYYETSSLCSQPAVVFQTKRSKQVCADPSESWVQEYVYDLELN
Experimental: as §1

recombinant human CCL7 = target: T14, recombinant human CCL7 (human, UniProt P80098 24-99)
T14 construct: also called MARC
Experimental: as §1

recombinant human CCL2 = target: T15, recombinant human CCL2 (human, UniProt P13500 24-99)
T15 construct: also called MCP-1/MCAF/JE
Experimental: as §1

Measured: binding result

T8 sequence (P51671 24-97 limits assumed): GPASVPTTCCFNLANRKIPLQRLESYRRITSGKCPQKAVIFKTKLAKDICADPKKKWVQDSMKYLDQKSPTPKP
T11 sequence (Q99616 24-98 limits assumed): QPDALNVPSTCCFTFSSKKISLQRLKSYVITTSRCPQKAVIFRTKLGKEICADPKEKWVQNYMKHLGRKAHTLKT
T14 sequence (P80098 24-99 limits assumed): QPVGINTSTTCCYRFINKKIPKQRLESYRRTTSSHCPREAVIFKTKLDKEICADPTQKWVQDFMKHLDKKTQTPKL
T15 sequence (P13500 24-99 limits assumed): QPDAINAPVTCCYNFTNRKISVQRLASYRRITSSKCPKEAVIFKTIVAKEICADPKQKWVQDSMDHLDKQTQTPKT
T2 sequence (P48061 22-89 limits assumed): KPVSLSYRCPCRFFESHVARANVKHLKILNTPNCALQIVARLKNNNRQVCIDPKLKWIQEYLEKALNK

B1: humanized anti-human CCL20 antibody 36LK3/36HC2 (antibody, human IgG1, kappa, V domains shown)
VH: QVQLVQSGAEVKKPGASVKVSCKASGYTFTNYWMHWVRQAPGQGLEWMGVIDPSDSYTTYAQKFQGRVTMTVDTSTSTVYMELSSLRSEDTAVYYCARGNYGVDYAMDYWGQGTLVTVSS
VL: DIQMTQSPSSLSASVGDRVTITCGASENIYGALNWYQRKPGKAPKLLIYGATNLADGVPSRFSGSGSGRDYTLTISSLQPEDFATYYCQNVLITPYTFGQGTKLEIKR
notes: expressed in HEK293 cells; also called HC2/LK3; HC2LK3
no binding (tested: 10 ug/ml): all assays above

B2: humanized anti-human CCL20 antibody 36LC3/36HC2 (antibody, human IgG1, kappa, V domains shown)
VH: QVQLVQSGAEVKKPGASVKVSCKASGYTFTNYWMHWVRQAPGQGLEWMGVIDPSDSYTTYAQKFQGRVTMTVDTSTSTVYMELSSLRSEDTAVYYCARGNYGVDYAMDYWGQGTLVTVSS
VL: DIQMTQSPSSLSASVGDRVTITCRASENIYGALNWYQQKPGKAPKLLIYGATNLADGVPSRFSGSGSGRQYSLTISSLQPEDFATYYCQNVLITPYTFGGGTKLEIKR
notes: expressed in HEK293 cells; also called HC2/LC3; HC2LC3
no binding (tested: 10 ug/ml): all assays above

B3: mouse anti-human CCL20 monoclonal antibody 36F7C10 (antibody, V domains shown)
VH: QVQLQQPGAELVKPGASVKMSCKASGYTFTNYWMHWVKQRPGQGLEWIGVIDPSDSYTTYNQKFKGKATLTVDTSSSTAYMQLSSLTSEDSAVYYCTRGNYGVDYAMDYWGQGTSVTVSS
VL: DIQMTQSPASLSASVGETVTITCGASENIYGALNWYQRKQGKSPQLLIYGATNLADGMSSRFSGSGSGRQYSLKISSLHPDDVATYYCQNVLITPYTFGGGTKLEIK
notes: Mouse hybridoma antibody; also called MouseMAb; parental mouse clone 36F7C10
no binding (tested: 10 ug/ml): all assays above

B4: chimeric 36F7C10 antibody (36F7C10-hFc) (antibody, V domains shown)
VH: QVQLQQPGAELVKPGASVKMSCKASGYTFTNYWMHWVKQRPGQGLEWIGVIDPSDSYTTYNQKFKGKATLTVDTSSSTAYMQLSSLTSEDSAVYYCTRGNYGVDYAMDYWGQGTSVTVSS
VL: DIQMTQSPASLSASVGETVTITCGASENIYGALNWYQRKQGKSPQLLIYGATNLADGMSSRFSGSGSGRQYSLKISSLHPDDVATYYCQNVLITPYTFGGGTKLEIK
notes: also called chimeric 36F710; Chimeric MAb
no binding (tested: 10 ug/ml): all assays above
